Literature values as cited in paper PMC10373500.

Target: Asp76 (UniProt position 102, GSPGADRVVFN)

## Ribonuclease T1 (RNase T1) (not stated in the article (Aspergillus oryzae from outside knowledge))
  pKa: 0.5
